System: K4 kissing-loop RNA reporter
Experiment: apparent KD of K4 kissing-loop reporter; higher = weaker reporter binding
Details: Eterna round: R107
Procedure: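 RNA-MaP round R107: designed RNA switches with theophylline, tryptophan, arginine or FMN aptamers are transcribed on-chip within common flanks. They are titrated with a labelled K4 kissing-loop RNA reporter in RNA-MaP buffer (100 mM Tris pH 7.5, 80 mM KCl, 4 mM MgCl2), without ligand or with the indicated ligand. Median apparent KD per design.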

[1] = input ligand: theophylline 20 uM
[2] = input ligand: tryptophan 2.4 mM
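Note: bound reporter read as fluorescence of individual clusters on recovered sequencing chips by microscopy, with normalized cluster intensities fitted with a binding model.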

| Sequence | apparent KD of K4 kissing-loop reporter (input ligand: FMN 200 uM) | apparent KD of K4 kissing-loop reporter (input ligand: arginine 13.2 mM) | apparent KD of K4 kissing-loop reporter (input ligand: none) | apparent KD of K4 kissing-loop reporter [1] | apparent KD of K4 kissing-loop reporter [2] |
| --- | --- | --- | --- | --- | --- |
| UGAUACCAGACGGCCGCCACUAGGACCGGGAGUGAUGUUCCCAAUUUAAAAUGCUCGGCCGCCACUAGGACCGGGUCUGGUAUCU [TrypBX 27 #DoubleAptamer #SwitchBubble] | 173 nM | 207 nM | 198 nM | 305 nM | 109 nM |
| AUGCGCGCGGCGGCCGCCACUCGCAUGAGAGUGAUGUUCUCGCCGGGCCCGAAAGGGCCCGGUGUGAGGACCGGGCCGGGCUGCG [#2 Same State - Tryptophan B Attempt #15 (HarryS)] | 176 nM | 64.9 nM | 145 nM | 91.8 nM | 237 nM |
| AAGCAGUCACUCGAAGCCAUCGAAGAUGGACGAGGACCGGUACGGCCGCCACUCGGAGUGAUGUUCCGAAGACUGCAAAAUAAAA | 312 nM | 274 nM | 296 nM | 330 nM | 469 nM |
| ACUGGGUUGACGAAAGUCAACAAAAGAGAAGGAGCGCACGAAAGUGCAGGUAGGUCGCUCAUUCCAGUGAUGUUGGAUCACCAGA [#SwitchBubble 18 #K4Late] | 242 nM | 366 nM | 453 nM | 279 nM | 199 nM |
| UGUCAUUGGUCGGCCGCCACUUCAUGUAGAGUGAUGUUCUGUAGGACGGAUCGAAAGAUCUGUCGAAGGACCGGGACCGAUGACU [FiskerMod 14 - Jieux - Same State - Tryptophan B] | 818 nM | 725 nM | 1180 nM | 727 nM | 272 nM |
| CCGGGCGGCUGAAGGAGCGGGCGGGCCCGAGUGAUGUUCGGGUGGACCGUGAGGUCCGGUGCCCAGGUAGGUCGCGGUUCCGCCC [#2 Same State - Arginine B Attempt #8 (HarryS)] | 247 nM | 183 nM | 162 nM | 296 nM | 238 nM |
| UGAUAGGACAGAAGGAGCGGAAGUGAUGUUUCCAAAAGAUAUGGUCGACAAAGUCGACUUUUCCAGGUAGGUCGCUGUCCUAUCU [KL-XARG-B18] | 60.4 nM | 90.1 nM | 67.1 nM | 84.1 nM | 66.6 nM |
| AAGGCCACGAGAAGGAGCGUGCUAUGGAGUGAUGUUCCAGUGUAGACCUAAGGUCUACACGCACAGGUAGGUCGCUCGUGGUCAA [Omei KL Arginine B SS A v1] | 209 nM | 186 nM | 203 nM | 238 nM | 186 nM |
| AAACAUCACUGGGAGUGAUGUUCUCAGUGACGAGGACCGGUACGGCCGCCACUCGCGAGAGAUCUAGUCUAGUCUUGACUGCAUU [Excl Tryptophan A V13] | 282 nM | 284 nM | 292 nM | 359 nM | 333 nM |
| CGUCACACUUGAUGGUUAUCCAAUGAUGAUACCAGCCGUCGAGAUGGCCCUUGGCAGCAUGUGGUACAGUGAUGUUGUACAUUGG [theeternabot_sameState_KL_Theo_A_30] | 392 nM | 244 nM | 383 nM | 352 nM | 258 nM |
| GAGAUAGAGGCGGCCGCCACUAGUGAUGUUAGUGAUGUUAGAUAGAGAAUAGAACAGAGGUAGGAUAGGACCGGGCCAGAUAGAG [whbob_SS_Tryp_B_w31] | 90.6 nM | 65.3 nM | 62.4 nM | 77 nM | 83.7 nM |
| CGAGUGAUGUUCGAAGAGUUGUUAAGCGAUACCAGCUAGGAAACUGGCCCUUGGCAGCGUAAUAAGUAAAUAAAUAAAUGAUCAC [whbob_Ex_Theo_A_th63] | 287 nM | 399 nM | 442 nM | 486 nM | 337 nM |
| CGGAGUGAUGUUCCGUUAAUUCCUUAGUUACGAGGACCGGUACGGCCGCCACUCGAUUUUAGUUUUAUUUAUUGUUUGGAAAUUU [JR_SSTryptoA_Sub008] | 253 nM | 268 nM | 290 nM | 327 nM | 113 nM |
| AAGGGCUAGGCGGCCGCCACUUGUUGUGAACACAUACGAGCCAGUGAUGUUGGUAUUGUGUGCGGAAGGACCGGGCCUAGCCGAA [Exclusion - Tryptophan B (Freestyle 22)] | 178 nM | 226 nM | 228 nM | 224 nM | 302 nM |
| GCCGUACGCACGGAUACCAGCACUCGUUGAGUGAUGUUCACGGUGUGGUAUUCAACGGGCUGCCCUUGGCAGCCGUGCGUACGGC | 135 nM | 91.2 nM | 134 nM | 139 nM | 144 nM |
| UUACUGAGUGAUGUUUGGAAAUAUCCUAGGCAGGAUAUGCGGAAACGCAGAAGGGCCACCUUCUAGUGAAGGAAACUUCGCUAUU [Ex FMN A 4] | 536 nM | 284 nM | 423 nM | 397 nM | 379 nM |
| GGAUAGGACAGAGGAUAUCCUAAAGAGGCAAGAAUAACUUGUCUCAAAUGGAUGACCAGUGAUGUUGGAGAAGGCUGUCCUAUCG [FmnBX 6 - #SwitchBubble #StaticStem] | 406 nM | 194 nM | 207 nM | 147 nM | 178 nM |
| UCUGGAGGAUAUGAUACCAGCAGUGAGAGAGAGGAAGUAUAGUGAUGUUAUAUGAGAGAAUGCCCUUGGCAGCGUGUGUAGUGGG [SSTheophylB.L] | 175 nM | 137 nM | 135 nM | 151 nM | 86.6 nM |
| CAUACGCAUGGAGGAUAUGAGAUUUCUCAUAUUAUUGCUUAUUCUCAGUGAUGUUGGGAUUUAAGCUCAGAAGGCCAUGUGUAUG [Ex FMN B 10] | 187 nM | 88.4 nM | 98 nM | 94.2 nM | 85.8 nM |
| UGUAUGUGUCAGCGAGUGAUGUUCGACGAUACCAGACUCGAUAGAGUCCCUUGGCAGCGUAAUGCAUGCCAACUGGCACAUACUA [#SwitchBubble 12 #K4Early] | 745 nM | 651 nM | 837 nM | 608 nM | 597 nM |
| GUAUCGCUAGGAGGAUAUUCCGUUUUUCAUAGAAAUGGCUAUGCGGAGUGAUGUUCCGAUUUACCGGAAGAAGGCCUAGUGAUAC [FMN B 23] | 106 nM | 132 nM | 149 nM | 142 nM | 142 nM |
| GGUAGCAUGGCGGCCGCCACUCUUCAUUAGUGAUGUUAAUGCCGAGUGCGCUAACUCCGCCAGGAGAGGACCGGGCCAUGCUACC | 397 nM | 302 nM | 406 nM | 407 nM | 185 nM |

| Sequence | apparent KD of K4 kissing-loop reporter (input ligand: FMN 200 uM) | apparent KD of K4 kissing-loop reporter (input ligand: arginine 13.2 mM) | apparent KD of K4 kissing-loop reporter (input ligand: none) | apparent KD of K4 kissing-loop reporter [1] | apparent KD of K4 kissing-loop reporter [2] |
| --- | --- | --- | --- | --- | --- |
| AACUCUCAGACACUUGAGUGAUGUUCAGACCGAGGACCGGUACGGCCGCCACUCGGGUCUGAGAGAGGUUAUCAAAGAUAGCCAA [Omei KL Tryp A SS A v7] | 280 nM | 222 nM | 336 nM | 292 nM | 905 nM |
| AGACCACAAAGUGGUCAGUGUUCGCUGCAGCGAGGACCGGUACGGCCGCCACUCGCGAGUGAUGUUCGCGAGCGCAGCGAACACA [Omei KL Tryp A Exc A v5] | 95.9 nM | 68.1 nM | 92.6 nM | 75.6 nM | 114 nM |
| AAGCUACGCGCGGCCGCCACUGUUUAUGUAUAAAUGCGUCGCUCACUGCUUUAGUGAUGUUGAAGCAGGACCGGGCGAAUGGUAC [theeternabot_exclusion_KL_Trp_B_15] | 80.9 nM | 75 nM | 79.6 nM | 76.5 nM | 82.7 nM |
| UUGCCUCUGGCUGAUACCAGUGAUGCAGGGUAUGAAACAGGGAGUGAUGUUCCCUGCAGCCACCCUUGGCAGCAGUUUAAGUUUG [Exclusion Theophylline B GF 21] | 182 nM | 152 nM | 181 nM | 158 nM | 160 nM |
| CUUGAUGGAAACAUCGAGUAUUUCACUGAUACCAGUAUCGAUAGAUACCCUUGGCAGCAGGAUCAGUGUUUACGAGUGAUGUUCG [Ex Theophylline A K4 9] | 444 nM | 408 nM | 451 nM | 380 nM | 376 nM |
| UGUCGGUGAAGAAUGUUAGUGAUGUUGGCACGAGGACCGGUACGGCCGCCACUCGGUAAUCAUCGCAAUUAUCGAUGGCGUAGCC [theeternabot_exclusion_KL_Trp_A_3] | 183 nM | 170 nM | 147 nM | 166 nM | 182 nM |
| AACGUUUUGAGAAGGAGCGCGUUAAGCAGUGAUGUUGCUGUAUUUUAUCCAAUUCAUAUAUCGCAGGUAGGUCGCUCAAUACGUA [JR_Nu_SSArginiB_Sub027] | 574 nM | 496 nM | 557 nM | 534 nM | 432 nM |
| AAGGGCUAGGCGGCCGCCACUGGUCGUGUACACAUACGAACCAGUGAUGUUGGUAUUGUAUGCGGCAGGACCGGGCCUAGCCGAA [Exclusion - Tryptophan B (Freestyle 26)] | 415 nM | 447 nM | 448 nM | 614 nM | 405 nM |
| GGGAGUAGUGCGGCCGCCACUGUGAAAGUAGAAGAAUAUAGUGAUGUUAUAUAGGAUUAAAAGAAUAGGACCGGGCAUUAGAUUU [SSTRyptB.W] | 176 nM | 207 nM | 219 nM | 186 nM | 209 nM |
| UGACUGGACUGAAGGAGCGGGCGAGACAAAGUCUCGAACUCGUAGUGAUGUUACGAAAUAACCCAGGUAGGUCGCAGUCUAGUCU | 77.8 nM | 62 nM | 74.9 nM | 67.2 nM | 74.9 nM |
| GUAAGACCGGGACUCCAGUGAUGUUGGAGGCAGGAUAUCCAGUCGAGGAGAAGGGCCAGGGAUAUCGAGCUGCUCGGUUCGUAGU [Rerareatra] | 81.8 nM | 101 nM | 103 nM | 107 nM | 66.5 nM |
| AACACCCGCUAUGAUACCAGUGAAGUGAUGUUUUACUCCGGGCGUAAGACAAAGGUCAGCCACCCUUGGCAGCAUAUCCGCGUAU [theeternabot_exclusion_KL_Theo_B_35] | 721 nM | 418 nM | 594 nM | 490 nM | 440 nM |
| UCUGGUAUAUCUGAUACCAGAGUAUAGUAUCAAUUGCAUAUGGAGUGAUGUUCCAUAUAACUCCCUUGGCAGCAGAUCUAUCUCU [Same State Theophylline B GF 25] | 292 nM | 308 nM | 325 nM | 386 nM | 288 nM |
| UGCAUCGUUGGCAGGCGCACCACACAGUGUAAGGAUAUGAUGUCGUUCAGAAGGUACGCUUGACCGAGUGAUGUUCGGGAGUGCC [theeternabot_sameState_KL_FMN_A_9] | 224 nM | 200 nM | 218 nM | 245 nM | 196 nM |
| ACUUGAGCACAAAGCACACCAAGCAGUAGGUAGGAUAUCCGGCUUAGGAGAAGGACCAUGCAGUGAUGUUGCAUGCUCCUCCAUG [Onraordi] | 267 nM | 94.7 nM | 101 nM | 102 nM | 93 nM |
| GCACGUACCCGAAGGAGCGUGCAAGAAUCGUAGUGAUGUUACGGAGAGUGUCACGCCGUCGCACAGGUAGGUCGCGGGUACGUGC | 78.3 nM | 80.3 nM | 67.5 nM | 63.2 nM | 61.4 nM |
| CUUAAGAUAUGAGUGAUGUUUAUGUCCGAAGGAGCGUGCGAAAGUACAGGUAGGUCGCGGAUGUGAGUGAUGUUCAUGUAAGCGA [KL-XArg-A13 #analogue] | 132 nM | 87.9 nM | 114 nM | 109 nM | 106 nM |
| AAGUGAUGUUGUAGUGAUGUUGUGAUGUUGCAGGAUAUAUAGUGAUGUAGAAGGGUAAGUACUGAUUUUUUUUGUGAGUGAUGUU [bbgvzrmullin] | 87.9 nM | 41.6 nM | 75.9 nM | 54.1 nM | 71.4 nM |
| UAGACCUACUCAGGAUAUCCGCAGUGAUGUUGCGGUUGGCCUGAGCGACAUGAAAAUCUUACUAAAGGAGAAGGGAGAGGGUUAC [Ratiteus] | 123 nM | 79.2 nM | 94.3 nM | 69.7 nM | 88.4 nM |
| GCAUCCAUGGCAGGAUAUAGGUUCAUGGAGUGAUGUUCCAUAACCCGAGUGAUGUUCGUUAUCCACCUAGAAGGGCCAUGGAUGC | 208 nM | 173 nM | 206 nM | 196 nM | 180 nM |
| AAGGACGGGACUUCCUCGCCGGAUAGAGAUACCAGCCCAGCAAUGGGCCCUUGGCAGCUCACUGACCUCAGUGAUGUUGAGGUUC [Arange] | 289 nM | 203 nM | 240 nM | 193 nM | 210 nM |
